The record followed here is a protein production outcome set (Wang et al. 2014).
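Further: failed if final PepcDB status was selected cloned or expressed and not failed if soluble or beyond.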

The series is described as follows: label from the status in PepcDB records.
As for “MIRQRSVIAKRAYIDEGVYIGNVVRIGEESMIHRRSRIGSGARIGGSVCIGVYCRIDGSVRIGQHADIGEWVNIDGHARIGNFARIGEWSRIGGRANIAAHVVLEKQSIIHSETCIQDASKLEHHHHHH”, the protein production entry was “failed”.
The result for “MPSSFNVESADGYERLMGRWSRKLAPMLIDFAGLADGDRVLDVGCGTGSLAFTLAETSGLQEIAAVDYSPVFVEAATRRNTDPRVSIRQADACALPFEDDRFDRAMSLLVLHFVPEAGKAVSEMRRVVRPGGVVAAAVWDHYGGMSGMRMMWDTVAMLDEGALPLRRKYCFQPMMRPGEMKESFIAQGLADVEETSLLIRMEYVSFADYWEPIAAGEGPLGKYVAGLDPAKRKAVDAAMRAAYEAGEPDGPRSFAAVAWACRGRVPGQS” reads “failed”; that for “MVTIPIFLIIIGATMAVVVWSAKRTKSAADFYTAGGGITGTQNGWAIAGDYMSAASFLGISGMISLYGYDGFMYSVGWLVAYITVLLIVAEPCRNAGKYTLGDILSFRTEPKVVRAVCAISVVAVSTFYLTAQMVGAGKLMQLLLGIPYKFAIIGVGILMVGYVVFGGMTATTWVQIIKAGLLMTGAGLLSVLVGLKAGMNPFTFFNDIATNPNIIEHVQKAVLKDPVAVAGFDYGQRFLEPGLFLKNPLDQISLGMALVLGTAGMPHILMRFFTVPTAQAARKSVIVAMFIIGSFYILTTLLGFGAAIHVTPQGITAVDKGGNMAAMMLAQQLGGDISPFLGDLLLAFLCAVAFATILAVVSGLVLAASAAIAHDIYVNVIKDGHADQHEQVMAARITSLCVGAMGIIIGIAAEKQNVAHLVALAFAVASSGNLPVVVMSLFWRKFNTAGVVSGLVVGTVASIALVMVSPNMTYPKVVAADAQKVVTKLEEKQAGGAVLTEKEMKDLDKAKADYAKNKDGKSMLGLDKPLIKLKNPGIISIPLGFLAAIIGCLAFPSRRSEEMFDEIYVRQNTGIGMAKAIDH”, “failed”.
Turning to “MERQQQQQQQLRNLRDFLLVYNRMTELCFQRCVPSLHHRALDAEEEACLHSCAGKLIHSNHRLMAAYVQLMPALVQRRIADYEAASAVPSVAAEQPGVSPSGS”, the protein production result was “not failed”.
As for “MINPKVITRILANTDLKTKMRLAKVVPKLGKSDDVTKCMLCPNMCLHVCPVFDAERRLTVSPSVKSRLAYLGETEEAIYHCLPCDACKNACPMDISVNDNLRGYRGGERAMKAIERFEKSMRKVEVEPRDGKILYFPGCSTFESGLFDVTVEVLEKLGVDFAVKNLECCGMPYYELGLVDKFRGKISSLKDAAAKYEGVISNCPHCVHVMRENGIKAAHLLAVLKPVKIGGDVSYHDPCILARKLDIVEEPRRLLAEMGFVVHEPVFNGKDTHCCGYGGVYRFVVPEMAEKVAERRMEHFEHQIVTLCPSCRMALKAKDIVEIIAEGL”, the protein production entry was “failed”.
The result for “AIADSKSHGWLIGANGTILETHDGGEHWEPRTFDFLRMDEEINYRFESISCYGNEGWIVGKPPILLHTQNGGKDWERIPLSSKLPGEPVLITALGPNRAELATTAGAIYTTDNGGKNWKALVKETIDATLNRTTSSGVTGASYYTGTVISITRDCNGYYLAISSRGNFYVTWHPGQEYWTPHPRDSSRRIQSMGFVQNDIHKGLWMANNGGFLGFSPPNPSLDTVSSIPFQRVDIRTGGYGILDVAFHQQKRNEVWASVGSGILYRSFDGGKHWEKDPWLDHLGSVLYRIKFVENSGFILGAKGTLLRYNG” reads “not failed”; that for “MGWEFFSLETLQELARQYGYGAVFFGIALENAGIPIPGETITLLGGFLAGSGDLSYGGVLIAAIAGAVLGDSCGYWVGRWGGWPLLTRAAQLFNIPQEKLDQARHKFSQNGAAAVFFGRFVTLLRIFAGPMAGIVRMPYGKFLLYNIGGASVWAAITVSLAYFLGRVVTIEQIIAWTTQFSWFALAAVVGMVGIYFVFHFLQKRFDQTIESTIGDRPQ”, “failed”.
For “DVLSSSNFILPDGIGVVMMSRLTNNRLQSRIAGYDVFKELLGVANKKKKRIFLYGAKKDVIKGVVSKISSEYPNIKIAGYSDGYVQDRTLVAKQIARANPDMVFVALGYPHQEKFIHNYRHLFPKAVSIGLGGSFDVFSGNVKRAPSWMIRLNLEWFYRLILNPWRWKRM”, the protein production result is “not failed”.
In the case of “MALGLLPLVLLTLSIFIYLVSKMSWKMGALLNFLAGLFTILYVFTLKVGTFEKLDLFGLNIQFEWTNVSFYFSFVSLLVIVSVMLFSTKWLETQKYRASYNMFLLMVTAGSLGVFMAADLITLYVFWEIAVLSSLLIVPMEKKEARKAVVVYAVMSAVGTYAFLYGTFLAYQRYGTLNIHGIAQGMLNDTSIGFKMAVFLLLSAAGIAKSGIFPLHIWLRETHGLAPNAFSSVLSGQFIKLGNYIFLLVLSVIPSLKVFSEVTVYSGIPLPNYILIALGNVSIVIGTLMAIKQDDMKMLMAYSSVANGGYILIGIGTMDPLGFEGGMFHIFNHAVASAVIFMAFAAVIYRTKTQKISEMGGLIHKMPVTFLVYLFSIISLAGIPPMSGFISKWMIYQALVRKGMFITAFLAFFGSIGSFLYVFRPLAGVFLGQLPRKYRDVKEAPAVMLTPMVLLVLISFFLGVWPFPILQAIEKIRVDLDVAPSFKISDPENWLVKGFAGSWNPVLVFGLFLVGFIVAYILYSLFPRPKKVDLLAPHREEGTPINIYTGGEFIYNPDLYHYNTKFYAGFERMYEKHPSWEKLLKMFGKLFHDAGEWIHSWFFEPSSSAYTFWVVVTLLLVFWVRW”, the protein production entry is recorded as “failed”.
Take “MSLATQQLGIIGLFVPTFFGSYYGTILKQTDLELRAVHRHVVVATGCGESTPREQALEAVRFLIGRDCDGVVVISHDLHDEDLDELHRMHPKMVFLNRAFDALPDASFCPDHRRGGELAAATLIEHGHRKLAVISGPFTASDNVERLDGFFDELARHGIARDSVPLIESDFSPEGGYAATCQLLESKAPFTGLFCANDTMAVSALARFQQLGISVPGDVSVIGYDDDYSAAYAAPALTSVHIPTAELTQNAVRWLINQCYGTKWEIFREFPVTVSMRASVAREGHHHHHH”: the protein production result is “not failed”.
Consider “MYHILFRRKSIVPAYNESTTIVSSIDSLLHLDYEAYEIIVVDDGSSDNTSDVLKEEFALMKISNTIDSIIATQTCKDVFQRQVGKVKLTLIVKENGGKGDALNMGINAANYDYFLCLDADSMLQVDSLSQISKSIQVDPTVIAVGGLVQVAQGVKIEQGKVASYRLPWRIIPCAQALEYDSSFLGARIFLDYLRANLIISGAFGLFKKDLVKAVGGYDTQTLGEDMELVMKLHFFCRNNNIPYRICYETDAVCWSQAPTNLGDLRKQRRRWYLGLYQCLKKYKSIFANYRFGAVGSISYIYYILFELLTPFIECFGIVIIFLSLLFNQLNIPFFISLVSLYIFYCVLITLSSFLHRIYSQQLVIGILDIVKVFYIAVFRYLILHPVLTFVKVASVIGYKNKKMVWGHITREKQMKDFETSVT”, for which the protein production entry is “failed”.
Next, “SVQEAPAALPTEPGPSPVPAFLGKLWALVGDPGTDHLIRWSPSGTSFLVSDQSRFAKEVLPQYFKHSNMASFVRQLNMYGFRKVVSIEQGGLLRPERDHVEFQHPSFVRGREQLLERVRRKVPALRGDDGRWRPEDLGRLLGEVQALRGVQESTEARLRELRQQNEILWREVVTLRQSHGQQHRVIGKLIQCLFGPLQAGPSNAGGKRKLSLMLDEGSSCPTPAKFNTCPLPGALLQDPYFIQSPLPETNLGLSPHRARGPIISDIPEDSPSPEGTRLSPSSDGRREKGLALLKEEPASPGGDGEAGLALAPNECDFCVTAPPPLPVAVVQAILEGKGSFSPEGPRNAQQPEPGDPREIPDRGPLGLESGDRSPESLLPPMLLQPPQESVEPAGPLDVLGPSLQGREWTLMDLDMELSLMQPLVPERGEPELAVKGLNSPSPGKDPTLGAPLLLDVQAALGGPALGLPGALTIYSTPESRTASYLGPEASPSP”: “not failed”.
The result for “MATLEITDIALVQPSHQPLSNDQTLSLSHLDNDNNLHVSFRYLRVYSSSSSTVAGESPSAVVSASLATALVHYYPLAGSLRRSASDNRFELLCSAGQSVPLVNATVNCTLESVGYLDGPDPGFVERLVPDPTREEGMVNPCILQVTMFQCGGWVLGASIHHAICDGLGASLFFNAMAELARGATKISIEPVWDRERLLGPREKPWVGAPVRDFLSLDKDFDPYGQAIGDVKRDCFFVTDDSLDQLKAQLLEKSGLNFTTFEALGAYIWRAKVRAAKTEEKENVKFVYSINIRRLMNPPLPKGYWGNGCVPMYAQIKAGELIEQPIWKTAELIKQSKSNTSDEYVRSFIDFQELHHKDGINAGTGVTGFTDWRYLGHSTIDFGWGGPVTVLPLSNKLLGSMEPCFFLPYSTDAAAGSKKDSGFKVLVNLRESAMPEFKEAMDKFHKGEFALS” reads “failed”.
Next, “GSSGSSGGYFDAHALAMDYRSLGFRECLAEVARYLSIIEGLDASDPLRVRLVSHLNNYASQREASGPSSG”: “not failed”.
For the sequence “SKEVRGTLKVSAPRDIGKQHIAPILAAFTEQYPEVVPYLYLNDNISNLAESGLDVVIRYGELADSSLISRKLATSRRVLCASPAYLARKGIPKTPQDLAQHDCLAMVRSNEEMKTWHFQENEQHKVITVVPKSFADDGEVIR”, the protein production result is given as “failed”.
The result for “MSETDLLLKMVRQPVKLYSVATLFHEFSEVITKLEHSVQKEPTSLLSEENWHKQFLKFAQALPAHGSASWLNLDDALQAVVGNSRSAFLHQLIAKLKSRHLQVLELNKIGSEPLDLSNLPAPFYVLLPESFAARITLLVQDKALPYVRVSFEYWHA” reads “not failed”.
On to “DKLYPCQCGKSFTHKSQRDRHMSMHLGLRPYGCGVCGKKFKMKHHLVGHMKIHTGIKPYECNICAKRFMWRDSFHRHVTSCTKSYEAAKAEQNTTEA”, for which the protein production result is recorded as “not failed”.
Take “QESVEDSLATVKVVLIPVGQEIVIPFKVDTILKYLKDHFSHLLGIPHSVLQIRYSGKILKNNETLVQHGVKPQEIVQVEIFSTNPDLYPVRRIDGLTDVSQIITV”: the protein production result is on record as “not failed”.
Next, “MMSAQRVVRTVRTARAISTALAVAIVLGTGVAWSSVRSFEDGIFHMSAPSLGHGGDDGAIDILLVGLDSRTDAHGNPLSAEELATLHAGDEEATNTDTIILIRVPNNGKSATAISIPRDSYVAAPGLGKTKINGVYGQTRETKRAGLVQAGASPTEAAAAGTEAGREALIKTVADLTGVTVDHYAEIGLLGFALIADALGGVDVCLKEPVYEPLSGADFPAGRQKLNGPQALSFVRQRHDLPRGDLDRVVRQQAVMAALAHRVISGQTLSSPATLKRLEQAVQRSVVLSSGWDIMDFVRQLQKLAGGNVAFATIPVLDGAGWSDDGMQSVVRVDPRQVQDWVVGLLHEQDQGKTDELAYTPAKTTANVVNDTDINGLAAAVSKVLSSKGFTTGSVGNNDGDHVPGSQVRAAKADDLGAQQVAKELGGLPVVADASIAPGSVRVVLANDYSGPGSGLGGSDPNGVVSPARAFNLGSADDTTPPPSPILTAGSDAPECIN”: “failed”.
Next, “TIDIDLQKEVEALLDKQIKKLRSQGAKDMDNAMMVVQNPKNGDILALAGKQINKSGKMTDYDIGTFTSQFAVGSSVKGGTLLAGYQNKAIKVGETMVDEPLHFQGGLTKRSYFNKNGHVSINDKQALMHSSNVYMFKTALKLAGDPYYSGMALPSDISSPAQKLRRGLNQVGLGVKTGIDLPNETRGQIEPLTNNPGNYLDLSIGQYDTYTPLQLSQYVSTIANDGYRIQPHIGLTIHESTNKDEVGPLKKKINGTVLNKVNNTEKEIKQIQEGFKMAFNDKDGTGYVSFKDTVVPTAGKTGTAEVFQNGEPRVNSTYIGYAPIDDPKLAFSIVYTNQPVPPPWLTGGDLGRDVINYYFKQLGKDDK”: “failed”.
